# B1: IL-23: an IL-12 family cytokine, essential for enhancing generation of TH17 cells (protein, UniProt Q9NPF7 20-189; P29460 23-328, looked up)
# Interleukin-23 subunit alpha: RAVPGGSSPAWTQCQQLSQKLCTLAWSAHPLVGHMDLREEGDEETTNDVPHIQCGDGCDPQGLRDNSQFCLQRIHQGLIFYEKLLGSDIFTGEPSLLPDSPVGQLHASLLGLSQLLQPEGHHWETQQIPSLSPSQPWQRLLLRFKILRSLQAFVAVAARVFAHGAATLSP
# Interleukin-12 subunit beta: IWELKKDVYVVELDWYPDAPGEMVVLTCDTPEEDGITWTLDQSSEVLGSGKTLTIQVKEFGDAGQYTCHKGGEVLSHSLLLLHKKEDGIWSTDILKDQKEPKNKTFLRCEAKNYSGRFTCWWLTTISTDLTFSVKSSRGSSDPQGVTCGAATLSAERVRGDNKEYEYSVECQEDSACPAAEESLPIEVMVDAVHKLKYENYTSSFFIRDIIKPDPPKNLQLKPLKNSRQVEVSWEYPDTWSTPHSYFSLTFCVQVQGKSKREKKDRVFTDKTSATVICRKNASISVRAQDRYYSSSWSEWASVPCS
# Legend:
# [1] = tested on: SGK1 expression in naïve CD4+ T cells; assay: SGK1 mRNA expression during T cell / TH17 differentiation; assay type: cell-based
# Procedure: Naïve CD4+ T cells were cultured in TH17 differentiating condition (TGF-β plus IL-6) for 96 hours.
# The correlation between the SGK1 expression level during T cell differentiation was previously unknown, so SGK1 mRNA level was first measured under different conditions during T cell differentiation (FIG. 1). […] IL-23, an IL-12 family cytokine, is essential for enhancing generation of TH17 cells.
# The time dependent expression of SGK1 during TH17 differentiation was further examined by culturing naïve CD4+ T cells under TH17 differentiating conditions (TGF-β plus IL-6) for 96 hours. After 48 hours, TH17 cells were supplemented with IL-23 until the end of the culture period.
# [2] = tested on: TH17 cells; assay: IL-23 dependent expansion of differentiated TH17 cells, intracellular cytokine staining for IL-17; assay type: cell-based, mice
# Procedure: Naïve CD4+ T cells were sorted from wild-type and SGK1-deficient mice and cultured under TH17 differentiation conditions. After a first round of stimulation, the cells were rested for two days in cytokine free medium. Two days later, cells were activated in the presence or absence of IL-23, and intracellular cytokine staining was performed for IL-17.
# (§1) It has been shown that exposure of IL-23 is essential for expanding and stabilizing TH17 cells. […] It was next tested whether SGK1 is essential for IL-23-dependent expansion of TH17 cells. Naïve CD4+ T cells were sorted from wild-type and SGK1-deficient mice and were cultured under TH17 differentiation conditions, as described herein. After a first round of stimulation, cells were rested for two days in a cytokine-free medium. Two days later, cells were activated in the presence or absence of IL-23, and intracellular cytokine staining was performed for IL-17 expression. […] It was further tested whether IL-23 can expand sorted memory TH17 cells. Both wild-type and SGK1-deficient CD4^+CD62L^− cells were sorted and cultured with either anti-CD3 alone or anti-CD3 plus IL-23.
# [3] = tested on: CD4+CD62L- cells (memory CD4 cells); assay: IL-17A and IL-17F expression in sorted memory CD4+CD62L- cells; assay type: cell-based, mice; conditions: anti-CD3 plus IL-23 vs anti-CD3 alone (FIG. 5)
# Procedure: Wild-type and SGK1-deficient CD4+CD62L-cells (memory CD4 cells) were sorted and cultured with either anti-CD3 alone or anti-CD3 plus IL-23.
# as §1
molecule,measurement,setting,value
IL-6: STAT3-activating cytokine used with TGF-β for TH17 differentiation,expression of SGK1 (mRNA),[1]; IL-6 added together with TGF-β (FIG. 1),further increased the expression SGK1
TGF-β,expression level of SGK1 (mRNA),"[1]; T cell differentiation, TGF-β (FIG. 1)",upregulate the expression level of SGK1
B1,IL-17 expressing TH17 cells after re-activation with IL-23,"[2]; SGK1-deficient TH17 cells, ~4% in absence of IL-23",~1%
same,IL-17 expressing TH17 cells after re-activation with IL-23,"[2]; wild-type TH17 cells, 11.5% in absence of IL-23",13%
same,expression of IL-17A and IL-17F,[3]; SGK1-deficient memory cells,defective in inducing expression of IL-17A and IL-17F
same,expression of IL-17A and IL-17F,[3]; wild-type memory cells,clearly enhanced the expression of IL-17A and IL-17F
same,expression of SGK1 (mRNA),"[1]; IL-23, further to TGF-β and IL-6 (FIG. 1)",further enhances the expression of SGK1
same,time dependent expression of SGK1,[1]; TH17 cells supplemented with IL-23 after 48 hours (FIG. 2),further induced SGK1 expression

# From patent US20130017188A1, “MODULATION OF SGK1 EXPRESSION IN TH17 CELLS TO MODULATE TH17-MEDIATED IMMUNE RESPONSES” (THE BRIGHAM AND WOMEN'S HOSPITAL, INC., priority 2009, published 2013)
